The target of assay [1] is MASP3 in Factor D depleted human plasma (human) (UniProt P48740). The assay is described as follows: cell-based or functional assay.
The target of assay [2] is human MASP3-His (human) (UniProt P48740). In words: cell-based or functional assay.
Assay [3] deals with MASP3 in Factor D depleted human plasma (human) (UniProt P48740). The assay is described as follows: cell-based or functional assay. This is another data set of the same source.
In assay [4] the target is human MASP3-His (human) (UniProt P48740). The assay is described as follows: ELISA; antigen coated 0.1 ug/well, antibody titrated, goat anti-human IgG-HRP. On the technique in general: ELISA stands for enzyme-linked immunosorbent assay.
Assay [5] concerns the target monkey MASP3-His (monkey). The description is as above.
Assay [6] deals with mouse MASP3-His (mouse) (UniProt P98064). The description is as above.
mouse MASP3-His (mouse), sequence (P98064 other isoform, or with tags, fused parts or gaps): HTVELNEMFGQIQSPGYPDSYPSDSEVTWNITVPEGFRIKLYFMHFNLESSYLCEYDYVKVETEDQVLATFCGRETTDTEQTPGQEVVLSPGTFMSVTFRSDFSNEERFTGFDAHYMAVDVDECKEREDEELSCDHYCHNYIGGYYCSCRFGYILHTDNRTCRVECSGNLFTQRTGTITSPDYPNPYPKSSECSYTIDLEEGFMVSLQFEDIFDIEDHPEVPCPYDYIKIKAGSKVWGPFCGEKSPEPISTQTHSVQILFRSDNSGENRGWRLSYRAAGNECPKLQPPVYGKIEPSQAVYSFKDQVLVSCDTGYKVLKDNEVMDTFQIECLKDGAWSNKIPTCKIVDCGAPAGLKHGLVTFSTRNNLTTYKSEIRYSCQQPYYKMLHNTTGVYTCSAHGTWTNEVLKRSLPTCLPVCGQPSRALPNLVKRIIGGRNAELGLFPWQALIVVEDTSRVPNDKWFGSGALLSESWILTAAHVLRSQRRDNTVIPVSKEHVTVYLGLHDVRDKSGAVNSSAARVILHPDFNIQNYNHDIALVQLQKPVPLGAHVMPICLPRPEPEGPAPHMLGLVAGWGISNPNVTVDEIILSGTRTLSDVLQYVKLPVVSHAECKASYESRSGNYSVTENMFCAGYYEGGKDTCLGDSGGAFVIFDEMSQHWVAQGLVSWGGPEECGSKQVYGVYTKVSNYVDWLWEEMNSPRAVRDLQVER

Where two headings read alike, the source gives them in different places.

human MASP3-His (human), sequence (P48740 other isoform, or with tags, fused parts or gaps): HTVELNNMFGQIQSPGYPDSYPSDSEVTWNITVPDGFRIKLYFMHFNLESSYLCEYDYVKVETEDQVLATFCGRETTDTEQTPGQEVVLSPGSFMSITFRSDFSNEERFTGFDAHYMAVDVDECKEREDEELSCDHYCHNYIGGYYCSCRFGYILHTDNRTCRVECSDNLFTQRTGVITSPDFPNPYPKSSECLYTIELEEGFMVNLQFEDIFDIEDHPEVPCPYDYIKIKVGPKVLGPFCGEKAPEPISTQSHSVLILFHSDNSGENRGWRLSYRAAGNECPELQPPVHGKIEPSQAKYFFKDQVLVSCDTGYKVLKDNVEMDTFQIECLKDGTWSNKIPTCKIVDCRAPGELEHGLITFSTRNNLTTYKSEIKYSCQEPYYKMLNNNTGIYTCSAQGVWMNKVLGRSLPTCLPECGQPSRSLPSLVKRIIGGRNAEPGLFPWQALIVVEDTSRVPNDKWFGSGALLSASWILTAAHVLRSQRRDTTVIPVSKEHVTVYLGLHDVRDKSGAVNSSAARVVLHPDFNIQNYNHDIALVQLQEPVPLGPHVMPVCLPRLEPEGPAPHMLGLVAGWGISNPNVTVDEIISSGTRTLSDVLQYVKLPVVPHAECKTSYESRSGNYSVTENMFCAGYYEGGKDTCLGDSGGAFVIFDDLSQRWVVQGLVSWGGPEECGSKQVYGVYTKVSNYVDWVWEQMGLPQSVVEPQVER
MASP3 in Factor D depleted human plasma (human), sequence (P48740 other isoform, or with tags, fused parts or gaps): as above

Take OMS906 (antibody): the Inhibit hemolysis IC50 is 17.1 nM in assay [1] and 13 nM in assay [3]. This substance registered an IC50 (nM), inhibition of MASP3 enzyme activity (cleavage of fluorescent tripeptide Boc-Val-Pro-Arg-AMC) in assay [2] of 200 nM. Further, the EC50 (usually the concentration giving half of the maximal effect) in assay [4] came to 0.98 nM; in assay [5], 2.97 nM; in assay [6], 5.33 nM.

The values are drawn from patent publication EP4725501A1.
